Assay results taken from paper PMC8421374.

Columns and labels:
[1] = single-channel recordings at five voltages; details: glycan lost; control: WT Piezo1
[2] = cell-attached patch clamp, peak stretch-activated current, Piezo1-/- HEK293T; details: glycan lost; control: WT Piezo1-GFP
[3] = inactivation time constants, cell-attached patches; details: glycan lost; control: WT Piezo1-GFP
[4] = cell-attached patch clamp, split construct, Piezo1-/- HEK293T; details: glycan lost; control: WT split Piezo1
[5] = live cell anti-HA surface labelling, confocal; details: glycan lost; control: WT Piezo1 with extracellular HA tag
[6] = Fura-2 ratiometric Ca2+ imaging, 2 µM Yoda-1; details: glycan lost; control: WT Piezo1
[7] = immunogold TEM, membrane/cytoplasm labelling ratio; details: glycan lost; control: WT Piezo1

Substance	other: unitary conductance, other: unitary conductance [1]	other: channel current [2]	also measured
human Piezo1: N295Q	no change		
human Piezo1: N295Q and N885Q		decreases	
human Piezo1: N658Q	no change	decreases	
human Piezo1: N658Q and N885Q		decreases	
human Piezo1: N885Q	no change	decreases	
human Piezo1: N892Q	no change		
human Piezo1: N1095Q	no change		
human Piezo1: N2294Q		no change	other: channel inactivation kinetics [3]: no change
human Piezo1: N2294Q and N2331Q			other: channel current [4]: abolishes
human Piezo1: N2294Q/N2331Q			localisation_or_trafficking [5]: abolishes; other: Yoda-1-evoked Ca2+ influx [6]: abolishes
human Piezo1: N2294Q/N2331Q (CapQQ)		decreases	localisation_or_trafficking [7]: decreases
human Piezo1: N2331Q		no change	other: channel inactivation kinetics [3]: no change
